Assay results from article PMC2879411.
One block for each substance: values may come before it.

What was measured:
[1] = biological target: filamentous actin (F-actin), rabbit skeletal muscle (rabbit) (UniProt P68135)
[2] = biological target: filamentous actin (F-actin), rabbit skeletal muscle (UniProt P68135); assay: inhibition of barbed end elongation from spectrin-actin seeds (pyrenyl-actin), fitted binding curve with 1:1 stoichiometry; conditions: 2 µM G-actin (10% pyrenyl-labeled)
[3] = biological target: filamentous actin (F-actin), rabbit skeletal muscle (rabbit) (UniProt P68135); remark: listed apart in the source
[4] = biological target: filamentous actin (F-actin), rabbit skeletal muscle (rabbit) (UniProt P68135); remark: listed apart in the source
[5] = biological target: GST-fused Eps8(648–821) wild type (mouse) (UniProt Q08509); assay: SEC + other: glycerol gradient sedimentation; Superdex200 10/30 and 10%–40% glycerol gradients (100 mM Tris-HCl pH 8, 500 mM NaCl, 1 mM dithiothreitol, 1 mM EDTA) of purified GST-Eps8(648–821) proteins
[6] = biological target: AEDANS-labeled monomeric actin (rabbit) (UniProt P68135); assay: other fluorescence titration; competition: 1.5 µM AEDANS-labeled actin, increasing Thymosin β4 with 0, 15 or 30 µM Eps8(648–821) or 0, 10 or 15 µM H1–H2; 0.1 M KCl and 1 mM MgCl2 (high salt); apparent constants

other: Kcap [2]: 205 nM
Substance: C-terminal fragment of Ce-EPS-8A (aa 714–917) fused to GST, wild type Δbund

other: Kcap [2]: 980 nM
Substance: C-terminal fragment of Ce-EPS-8A (aa 714–917) fused to GST, wild type Δcap

Kcap: barbed end elongation [4]: 4 µM
Substance: GST-fused Eps8-ΔcapΔbund, double H1 and Villin-like motif mutant of Eps8(648–821) (from UniProt Q08509 648-821) (domain or fragment)

Kapp with 10 µM H1–H2 [6]: 6 µM | Kapp with 15 µM Eps8(648–821) [6]: 9 µM | Kapp with 15 µM H1–H2 [6]: 11 µM | Kapp with 30 µM Eps8(648–821) [6]: 14 µM | Kd [6]: 3000 nM
Substance: Thymosin β4 (peptide)

Further lines, the substance ahead of its results:

Substance: C-terminal fragment of Ce-EPS-8A (aa 714–917) fused to GST, wild type (domain or fragment)
Kcap of barbed end inhibition: elongation from spectrin-actin seeds with 2 µM G-actin (10% pyrenyl-labeled) [1]: 108 nM

Substance: C-terminal fragment of Ce-EPS-8A (aa 714–917) fused to GST, wild type ΔcapΔbund
other: Kcap [2]: > 4000 nM

Substance: Eps8(648–821)-V689D-L693D (Eps8-Δcap) (from UniProt Q08509 648-821) (domain or fragment)
Kcap: barbed end elongation from spectrin-actin seeds [3]: 700 nM

Substance: GST-fused Eps8(648–821) wild type (from UniProt Q08509 648-821) (domain or fragment)
Kcap: barbed end elongation, wild type of Figure 6C [4]: 4 nM | Kcap: barbed end elongation, wild type of Figure 6D [4]: 16 nM | stoichiometry N [5]: 2
